According to patent publication US20170334973A1 (published 2017):
Positions count from the first letter of the chain named.

T1: EBOV GPcl (Ebola virus (EBOV), UniProt Q05320 33-200; Q05320 502-632)
T1 chain 1: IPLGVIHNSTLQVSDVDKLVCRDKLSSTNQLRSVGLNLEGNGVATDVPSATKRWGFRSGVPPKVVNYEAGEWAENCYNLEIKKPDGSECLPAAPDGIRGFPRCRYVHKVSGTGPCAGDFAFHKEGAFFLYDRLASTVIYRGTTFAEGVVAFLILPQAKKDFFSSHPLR
T1 chain 2: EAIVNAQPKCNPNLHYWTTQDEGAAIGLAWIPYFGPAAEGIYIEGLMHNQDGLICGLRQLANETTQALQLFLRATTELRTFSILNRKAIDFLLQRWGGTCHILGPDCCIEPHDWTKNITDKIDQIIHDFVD

T2: EBOV soluble GP (sGP) (Ebola virus (EBOV), UniProt P60170 33-324)
T2 chain: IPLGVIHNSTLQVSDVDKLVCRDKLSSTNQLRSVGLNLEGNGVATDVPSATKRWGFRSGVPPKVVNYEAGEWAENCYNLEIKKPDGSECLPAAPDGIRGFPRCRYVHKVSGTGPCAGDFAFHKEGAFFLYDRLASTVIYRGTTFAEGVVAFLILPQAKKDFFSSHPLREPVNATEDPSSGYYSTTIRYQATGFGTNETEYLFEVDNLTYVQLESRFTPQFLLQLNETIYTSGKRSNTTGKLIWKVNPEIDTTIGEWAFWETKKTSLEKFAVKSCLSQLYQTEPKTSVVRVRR

B1: FVM04 (antibody, V domains shown)
VH: EVQLVQSGGGLVQPGGSMRLSCEASGLSLSDYFMHWVRQAQGKGLEWIGLIQTKAFTYKTEYPAAVKGRFTISRDDSKNTLYLQMSSLKPEDTALYYCIAVTPDFYYWGQGVLVTVSS
VL: DVVMTQSPSFLSASVGDRVTITCRASQDITINLNWFQHKPGKAPKRLIYVASRLERGVPSRFSGSGSGTEFTLTISSLQPEDFATYYCQQYNNYPLTFGPGTKLDIKR
B2: FVM02P (antibody, V domains shown)
VH: EVQLVESGGGLVQPGGSLRLSCAASGFTGFTFSDYAFYWVRQAPGKGLEWVGFIRGKAYGGTADYAASVKGRFTISRDNSKNTAYLQMSSLKTEDSAVYYCTSQGVTVATPYHWGQGVLVTVSS
VL: DIVLTQSPLSLPVTPGEPASISCRSSQSLLHSGGKTYLYWYLQKPGQSPQLLIHEVSNRASGVPDRFSGSGSGTDFTLKISRVEAEDVGVYYCMQGIQLPLTFGGGTKVEIKR
B3: FVM01P (antibody, V domains shown)
VH: QVQLQESGPGLVKPSETLSLTCTVSGASISNYRWNWIRQPPGKGLEWIGEINGYSGSTNYNPSLKSRVTISKDASKNQFSLKLTSVTAADTAVYYCPIIGGFTLEWFDVWGPGVLVTVSS
VL: DVVLTQSPSSLSASVGDRVTITCRASQGIRNYLNWYQQKPRKAPKLLIYAASSLQSGVPSRFSGSGSGTEFTLTISSLQAEDFATYYCLQGYRTPFTFGPGTKLDIKR
B4: FVM13 (antibody, V domains shown)
VH: EVQLVQSGAEVKRPGESLKISCKTSGYTFTSSWISWVRQMPGKGLEWLGSIYPGDSDTRYNPSFQGHVTISADTSIITTHLQWSSLKASDTATYYCVKGSETWGQGVLVTVSS
VL: KPMLTQPTSLSASPGASASLTCTFSGGINVAGYNILWYQQKAGSPPRYLLRYKSDSTKDQGSGVPSRFSGSKDASANTGILRISGLQSEDEADYYCAIGHSSGWIFGGGTRLTVL
B5: FVM20 (antibody, V domains shown)
VH: EVQLVESGAEVKRPGESLTISCKTSGYSFTGSWISWVRQMPGKGLEWLGSIYPGDSETKYNPSFQGHVTISADKSVTTTYLKWSSLKASDTATYYCVKGSETWGQGVLVTVSS
VL: B4 VL with K1N, P2F, P7S, T8A, N34H, L36F, K41N, A42P, T57E
B6: FVM09 (antibody, V domains shown)
VH: B5 VH with E6Q, G31D, I34V, S35A
VL: B4 VL with K1Q, P2L, M3V, T8A

Target: T1, EBOV GPcl
Assay: ELISA

| Binder | EC50 |
| --- | --- |
| B1 | 8 ng/mL |
| B2 | 5 ng/mL |
| B3 | 5 ng/mL |
| B4 | > 10000 ng/mL |
| B5 | > 10000 ng/mL |

Target: T2, EBOV soluble GP (sGP)
Assay: ELISA

| Binder | EC50 |
| --- | --- |
| B1 | 7 ng/mL |
| B3 | 5 ng/mL |
| B4 | 5 ng/mL |
| B6 | 17 ng/mL |
| B5 | 23 ng/mL |

target: EBOV GP[change] (Ebola virus (EBOV), UniProt Q05320); assay: ELISA

| Binder | EC50 |
| --- | --- |
| B1 | 12 ng/mL |
| B2 | 10 ng/mL |
| B3 | 9 ng/mL |
| B4 | 3 ng/mL |
| B6 | 5 ng/mL |
| B5 | 7 ng/mL |
